Assay: soluble on expression in E. coli; label from the status in PepcDB or PDB records

Sequence	soluble on expression in E. coli
MGSDKIHHHHHHMLRGGAPAVRMNAMKIISVNVGQPTALQVGQRTAVSGIRKHPVPGRVQVGEKGLEGDHVLNRRYHGGPDQAVYVYTREDYDHWTELLGRALEPGAFGENVLISGAESAEVRVGERFLLGAVEIEVTAPRLPCSTLGARMEDAGFVKRFKAARRPGFYARVLQSGDIGRGDPVTRTPAPDGAPTIGELFDADFAKSHDPAELRAWLTFPLGKRQRKEVEKWLAKAEG	not soluble
MGSDKIHHHHHHMLRSTISLLMNSAAQKTMTNSNFVLNAPKITLTKVEQNICNLLNDYTDLYNQKYHNKPEPLTLRITGGWVRDKLLGQGSHDLDIAINVMSGEQFATGLNEYLQQHYAKYGAKPHNIHKIDKNPEKSKHLETATTKLFGVEVDFVNLRSEKYTELSRIPKVCFGTPEEDALRRDATLNALFYNIHKGEVEDFTKRGLQDLKDGVLRTPLPAKQTFLDDPLRVLRLIRFASRFNFTIDPEVMAEMGDPQINVAFNSKISRERVGVEMEKILVGPTPLLALQLIQRAHLENVIFFWHNDSSVVKFNEENCQDMDKINHVYNDNILNSHLKSFIELYPMFLEKLPILREKIGRSPGFQQNFILSAILSPMANLQIIGNPKKKINNLVSVTESIVKEGLKLSKNDAAVIAKTVDSICSYEEILAKFADRSQLKKSEIGIFLRNFNGEWETAHFASLSDAFLKIPKLETKKIELLFQNYNEFYSYIFDNNLNNCHELKPIVDGKQMAKLLQMKPGPWLGKINNEAIRWQFDNPTGTDQELITHLKAILPKYL	not soluble
MGSDKIHHHHHHMLTKRQLLVLKEIIRLFTESGQPVGSKTLMQELPVHVSSATIRNDMAALEDAGLITKTHSSSGRVPSTQGYRYYLDHLVEPVRVSRHDLATIKQELGQRYSKMDEIVAQSAQILSNLTSYTAISLGPEVNNIKLTGFRLVPLGNHQVMAILVTNNGNVENQVFTVPPSISFDELEKAIRIVNDQLVGLPLVQVAQRLRTDVPSMLMQYLTSPDGFLDIFGNVLKSAASERFYVGGRLNLMDYLGDSDIHELKKIMSLIDADHGDLTELLGGPIRQTPVQVRLGPELKPIDLANLSLITASYDVGGHGTGMIALLGPTQMPYSKMIGLLDVFREELAKRLTDYYANFDQ	not soluble
MGSDKIHHHHHHMLTKSSTELVRQQNSALVLAALRRKGSLSHTEIAAQTGLASATISVITAELERSGIIAKTEQHVQGGRGRPRVLFEPRRGCGYVIVVRISSDVVQYSLADYGGILLDRFEDARSHDLRGTAAFGEVLAAALERLLVRSNISKDEVLAISISSKGLVAGGGARLIWSPVFGREQLDFVELLRPAWRARIMLSNESLLVAHALAVREEERERGFHALAAVSLGHSIGLGLARRGKSGELDVSAPDFGHMLHQASAGLCRCGSYGCIEAAAGFYGILRTAFEVPSDTIPAKFVPLSEVDKIAASARQGNRMGGYAFRQAGLALGNGISRMLSLYEPMPIFVTGPGTRYFDLLEKGLEEGLAHSLQVRLQGMPQIRVVPDEQRLVFDGHLNRALGAIDGDIAAAGHP	not soluble
MGSDKIHHHHHHMLTYDLTKTDGPLYKCLYECIKNDISQGKLSSGEKMPSKRTLAKNLGVSTITVENAYDQLIGEGYMFARPKKGYFIADVSDIRVIKAPVQKELSIKLPPEQDESIFDFSSNRTDSGNFPFSIWAKLMRETISLREQELLSVSPCGGVRELREAIASHLSSFRGMNVDPDQIIVGAGTEYLYGLLVKLLGTDKVYCVEDPGYKKISQIYECNNAKCLPVQMDEQGISVELIKKANAQIAHISPTHHFPTGITMPVNRRYELLAWANESSDRYIIEDDYDSEFRMNGHPIPPILSIDACEKVIYINTFSKSLTSTIRISYMVLPEHLANEFYRRLSFYSCTVSTFEQYTLARFISEGYFEKHINRMRLHYGRKRQSVLSSIKGCFTEKECRVIENDSGLHFIIQFDTNLPDKTVEERLLKKGIKLQAITHFNLIKPKEDRHQFIINYSNIDADRIMDELLIIKDTIL	not soluble
MGSDKIHHHHHHMLVELKKPKLKDGKDQLRSYCNATGSPIAVWTNGDQISYYQRKDPNYFEDIPGLPNANQTLADILQIKFTLEDLIANDKLVKENKSLKTLIEEMEDDVLANAGVDVFEELFKLIFTKLYDEWYSGQGNRRSTRSLEFRNTGQTEAALKTKIQDLFDKAKKKWEGVFSEDAKISLTPSHLSVCVSSLENVKLFNSNLDVIDEAFEYLINQSSKGEKGQFFTPRYVIDLCVKMLNPQEDEYMIDTAAGSSGFPVHTIFHVWRQILDDEGLSASHLFSLEDKPPRCKEYVEDKVFAIDFDEKAVRVARTLNLIAGDGQTNVLHLNTLDYELWDEVTEQDDWDDIYHEGFKRLKRLRPKNSKDYREFQFDVLMANPPFAGDIKEPDTVGECNTYLYLKVLCKLKPSICRCSF	not soluble
MGSDKIHHHHHHMLYLIGLGLSYKSDITVRGLEAIKKCSRVYLEHYTSILMAASQEELESYYGKEIILADRELVETGSKQILNNADKEDVAFLVVGDPFGATTHTDLVLRAKREAIPVEIIHNASVMNAVGACGLQLYNFGQTVSMVFFTDNWRPDSWYDKIWENRKIGLHTLVLLDIKVKEQSIENMARGRLIYEPPRYMSIAQCCEQLLEIEEKRGTKAYTPDTPAVAISRLGSSSQSFKSGTISELANYDSGEPLHSLVILGRQCHELELEYLLEFADDKEKFGKDVANDQEYFKPAAWVPPTEDDSDE	not soluble
MGSDKIHHHHHHMLYRQKVLLALIDVFGGTIDRLYLQKMLFLLSQRQEKPIYEFVPYYYGGFSFTAQWDINALFRKGFLAVDKHTVTLVQKHPQLFDSVTERDMHFLHELCQQYRYKARNDLLRELYEQYPYYAQQSKILDEILDDEAKRRIKQCQDEESRIVLFTIGYEGRSLENYLNTLIRNGIKILVDVRNNPVSMKPGFSKSQLRTYCENLGIGYIHIPEVGIVSELRKNLKSQEDYEELFAAYRREILPTTVSFQQRILNILLCYHRIALTCFEAESQRCHRSHLADAISKLPEFSYEVVHL	not soluble
MGSDKIHHHHHHMMKKIEEARTFISERTNLSPDILIILGSGFGPFIEKVEDPVIIDYKDIPHFPQPTVEGHSGKLVFGRISDKPVMIMAGRFHLYEGHDPATVAFPVYLAKYVGVKGVVVTNAAGAINPEFKPGEIILVRDIINFMFRNPLRGPNDEKIGPRFPDMSSVVDPEWARKIQERLSLKEGVYIGVLGPSYETPAEIRVFEKLGADLVGMSTVPEVIAAKHCGLKVVVFSCVTNMAAGITHGRLSHEEVVRTTKMAQGKIEKALTTAVEVF	soluble
MGSDKIHHHHHHMMKLSTMKKVVATVDKKWRSPLAEFILERWGFDRHSVFYWRASANFIFMFQHHGKKYYLRFNDSCERNLTLIKEELKLVQYLGSQALAIAQPVLSKNNNLVEVVITPIGTFYAVVFEALDGEHLSFEEMNEEQLFLWGEMLGTIHENLKNVPNDLAIKRPSWKDDLEKVKEWIPSNEIAAMKELEMISEWADQLPITKENFGIIHYDFELDNVRFNEITIGALDFDDCAYYWYVADIVYALRDAGKFRVTTPAIKTFIKGYKSSTFLEEELLEEANGFERLHHLVSFARLLRSVDKDYSKEEPGYLMDLRKNLVSLINNYRLSFEQNHK	not soluble
MGSDKIHHHHHHMMLSVSLAALRTFVEVARLRSFKDAAQSLGVTSGAVSQQVKLVENRLDVTLFERSGRNVKLTEQGLRLLGAIHVPFEQIREAVEDFDRRRSARNVVRIVTPIALASHWLVPRMDRFSRRHPDIELHIDTAHAEGVRRQLFDIAIQYGNETAPGVEAKRLPSSKLVVVGSPQLLEGASPIRDPSDCLKFPLLHDHDRLNWPAWFRANGSTHLPAASRKGLSFADESLLVAAAAAAQGLALVRDIHAENLLLHGRLKIAIETSMEPFQSYYLLTPSLVSQRPVVDACKNWILSEMARPVFLDLLSRP	not soluble
MGSDKIHHHHHHMMPAKWDEVRPLLDRFSRDLPTNATVWFMMPDGSYYATAKGGFTDQNLKDCTCFPKLIGGKEVLGELVISRSTGQRSIVVAAPVVADGKVVAAVGVSVDAVKLIEVVESRMTLPENAYIYALDAKTKVTLHRYQARTFKTVFEIGNESLGDTFKKVMHREQGVFNYSLEGKKMNSIFRKSPVHGWYFFIAQQCK	not soluble
MGSDKIHHHHHHMMSLSNERLIHDPLEWDALVARYGLDCYYEYAYFKLAQEPEAVPEMYVHPSEFGILIYPYLKRRISGTPLQDLTTPYGYGGPVFVGLWSSDQIKDIRRHFLEYCQAERIVSETIRFHPLLENDELGRSWCETTTVLQQTVTVALSEPFEAIESQFSSMTRRNIRKAVREDVTVRVAGQEEYAKFIRLYRLTMDKHQADARYYFTDHYFRQFHDGRLPAELLVAEREGKIIAGCIVLYGQQFAHYHLGASDPAELSARPNHLLFAEMIRRAKALGKTALHLGGGTTRNEDDSLLAYKRSFSNRQTSFTLGTSVLHPLLYRQLSEQHFAHNVLSSQDWFPAYRTPVRQLSPRGEQSS	not soluble
MGSDKIHHHHHHMMVLTLKDFEQTYFYKTELIQLCKVYGLPTYGTKAELNKYLTLYLSGTPACDIKVNRKHTTSRNKTKITLETKILGEGFSFNQEARKLFAEYFGKEKFSFKKEMAVIKRQAEHNGETKMTVRDLLERYQEMVGQGNVLRETAEEATYQWNNFVRDFCKSSESQNYHQKLKVAAILWEKVKNSKNDKKFEASLVQKYEKNISNYMNK	not soluble
MGSDKIHHHHHHMNAAQAGLYVDQLTVTWRNGHTALRDASFSVPRGSIAALVGVNGSGKSTLFKALMGFVRVGHGEIAILGQPVNRALRQNLVAYVPQSEEMDWSFPVLVEDVVMMGRYGHMGWLRRAKPRDREIVDAALARVGMSEFRHRQIGELSGGQKKRVFLARAIAQQGQVILLDEPFTGVDVQTEARIISLLRELRDEGCTMLVSTHNLGSVSEFCDYTVMVKGTVLASGPTETTFTAENLERAFSGVLRHVALTGGEAQVITDDERPFISRRAAGGPR	not soluble
MGSDKIHHHHHHMNADTPLQLLGGLTAAEFLRDYWQRKPLLVRQAIPDFESPLSADELAGLSLEESVESRIVLEHGKTPWEMRRGPFQEEDYQHLPEQDWTLLVQAVDQFVPEVAQLLEQFRFLPSWRIDDVMISYAAPGGGVGPHFDNYDVFLLQGHGRRRWKVGQMCSSDSPLREHADLRILADFEQSDEWVLEPGDMLYLPPRLAHYGIAEDECMTYSIGFRAPSAAEVLTHFTDFLGQFLSDEERYTDAGLQPVGDDPHQIQRDALERLQGLIQEHMSDERLLLTWFGQFMTEPRYPELVAGEEIPEEELFGALEDGALLVRNPSARLAWSEIDIGLVLFASGQSVLLPGQLKELLKLVCSADALHLENLGQWLADDDARKLLAELVKQGSLEFADE	not soluble
MGSDKIHHHHHHMNAQEERSRDWVSIRRPFAKAGLETMTARYIQQSFKPHAHDEYVIGIIEGGVHSVWCRGIHHNMPSGTVVTMHPGDVHYGNAAIAEGWKQRMIYISENEIGKFISDIAGGDKFLLPDFKQTFHDRPDLAHSFAQFHEVLHSSPLALARDVALDSIMRVTIGALSPDFVKAKDAKQPSGRIADAVEFLHNRIEDDVTLDELCDVAGLRRRQTIEAFKRCTGLPPHAYHVIQKVKAVKTMLRDGFSATEAAARAGFADQSHMTRHFVGVVGMTPGAYALDCQKKY	not soluble
